Measurements as given in publication PMC12208130.

Target: T1, PTK7 (receptor on HCT116 cells) (human (HCT116 colon cancer cells)) (UniProt Q13308)
T1 sequence: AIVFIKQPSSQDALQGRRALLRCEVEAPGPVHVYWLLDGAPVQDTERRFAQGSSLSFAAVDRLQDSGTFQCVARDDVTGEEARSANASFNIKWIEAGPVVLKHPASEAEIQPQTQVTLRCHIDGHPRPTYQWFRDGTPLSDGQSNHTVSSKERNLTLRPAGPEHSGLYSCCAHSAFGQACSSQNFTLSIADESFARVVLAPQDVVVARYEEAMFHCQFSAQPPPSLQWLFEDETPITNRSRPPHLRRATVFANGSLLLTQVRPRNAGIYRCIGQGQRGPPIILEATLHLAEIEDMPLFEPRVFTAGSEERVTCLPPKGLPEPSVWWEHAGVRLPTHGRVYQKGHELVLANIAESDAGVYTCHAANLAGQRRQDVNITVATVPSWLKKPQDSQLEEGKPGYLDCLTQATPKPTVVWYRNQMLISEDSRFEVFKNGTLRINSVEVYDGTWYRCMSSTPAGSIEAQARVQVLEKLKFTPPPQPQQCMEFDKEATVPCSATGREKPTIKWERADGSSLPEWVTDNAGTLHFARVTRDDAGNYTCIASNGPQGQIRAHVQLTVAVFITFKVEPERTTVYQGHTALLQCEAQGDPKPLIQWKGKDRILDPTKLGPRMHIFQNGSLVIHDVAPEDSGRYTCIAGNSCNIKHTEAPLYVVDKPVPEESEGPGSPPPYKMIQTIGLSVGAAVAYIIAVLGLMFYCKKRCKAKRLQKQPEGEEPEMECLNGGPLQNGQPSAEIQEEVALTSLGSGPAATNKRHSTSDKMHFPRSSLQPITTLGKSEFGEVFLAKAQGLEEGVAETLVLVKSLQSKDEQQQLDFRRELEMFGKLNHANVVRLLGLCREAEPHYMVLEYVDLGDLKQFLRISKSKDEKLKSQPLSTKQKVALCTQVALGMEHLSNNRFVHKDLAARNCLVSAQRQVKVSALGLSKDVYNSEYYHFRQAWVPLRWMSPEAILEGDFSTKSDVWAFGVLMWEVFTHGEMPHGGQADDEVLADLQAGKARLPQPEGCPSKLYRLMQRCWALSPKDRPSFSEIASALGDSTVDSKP
Assay: flow cytometry
Details: 250 nM aptamer (varied for Kd), 30 min at 4 C, DPBS with ~5 mM MgCl2, 0.1 mg/mL yeast tRNA, 1 mg/mL BSA (a 2.25 g additive in the wash buffer is …)

Row | Sequence | Kd | Kd (A23 = cordycepin (3'-deoxyadenosine), 2'-5' linkage)
1 | ATCTAACTGCTGCGCCGCCGGGAAAATACTGTACGGTTAGA [Sgc8c (Sgc8-Cy5)] | 5.92 nM | –
2 | ATCTAACTGCTGCGCCGCCGGGAAAATACTGTACGGTTAGA [Sgc8-23A] | – | 6.3 nM
